Laboratory results: US20140223606, “COMPOSITIONS AND METHODS COMPRISING SEQUENCES HAVING MEGANUCLEASE ACTIVITY” (PIONEER HI BRED INTERNATIONAL INC, published 2014)

Assays:
Details in all cases: tags: NLS, 6xHis
[1] = target: T1, LIG3-4(B40) (artificial); assay: cell_activity; yeast 30 C; 22 C: 0
T1 chain: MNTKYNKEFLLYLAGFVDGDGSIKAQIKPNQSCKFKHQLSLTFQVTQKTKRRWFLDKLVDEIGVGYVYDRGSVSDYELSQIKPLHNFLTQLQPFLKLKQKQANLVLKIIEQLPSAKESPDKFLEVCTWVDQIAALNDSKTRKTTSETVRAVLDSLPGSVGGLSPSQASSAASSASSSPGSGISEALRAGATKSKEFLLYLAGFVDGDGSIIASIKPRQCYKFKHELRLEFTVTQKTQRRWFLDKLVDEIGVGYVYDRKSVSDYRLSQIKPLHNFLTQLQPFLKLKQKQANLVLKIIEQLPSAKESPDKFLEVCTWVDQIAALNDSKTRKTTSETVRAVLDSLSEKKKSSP
Method: (§1) A 3 mL culture of selective media (MP Biomedical) was inoculated with a single colony of the yeast screening strain and grown at 30° C. overnight. On the following day, a 50 ml YPD culture (MP Biomedical) was started with 2 ml of the overnight culture and grown at 30° C. overnight. On the following day, the cells were harvested by centrifugation at 4000 rpm. The cells were resuspended in 100 ml ice cold water and centrifuged again. The cells were then washed in 1.2 M sorbitol, followed by treatment with 2 ml of 10 mM Tris pH 8.0, 1 mM EDTA, 100 mM Lithium acetate, 10 mM DTT, 0.6M sorbitol for 30 minutes at 30° C. with shaking. The cells were recovered by centrifugation, washed in 40 ml 1.2M sorbitol and finally resuspended in 250 microliters of 1.2M sorbitol. 50 microliter aliquots were transferred to test tubes on ice. Up to 5 microliters of DNA (100-500 nanograms) were added. The suspension was transferred to a 0.2 cm electroporation cuvette, on ice. Electroporation was performed with a pulse charge at 1.5 kV, 200 ohms, 25 microF (pulse time of 5 milliseconds). 1 mL YPD media (MP Biomedical) was added and the cells were allowed to recover at 30° C. for 1-2 hr. The cells were centrifuged, resuspended in 100 uL 1M sorbitol and plated on selective media lacking leucine and containing 2% galactose. The resulting yeast colonies were incubated at various temperatures ranging from 22 to 37 degrees Celsius for 7-10 days. I-CreI and meganucleases derived from it have maximal activity at or above 37 degrees Celsius. Screening was performed at a range of temperatures from 22 to 37 degrees in order to observe increases in activity at lower temperatures which are relevant to certain biological systems (eg. plant cells, plant cell cultures, etc). At that time the red/white sectoring phenotype, indicative of meganuclease activity was observed. Colonies with increased white sectoring over the parental meganuclease (indicating colonies expressing a meganuclease with increased meganuclease activity), also referred to as “hits” and sometimes completely white, were isolated for further analysis.

[2] = target: T2, LIG3-4(A6) (artificial); assay: cell_activity; yeast 30 C; 22 C: 0
T2 chain: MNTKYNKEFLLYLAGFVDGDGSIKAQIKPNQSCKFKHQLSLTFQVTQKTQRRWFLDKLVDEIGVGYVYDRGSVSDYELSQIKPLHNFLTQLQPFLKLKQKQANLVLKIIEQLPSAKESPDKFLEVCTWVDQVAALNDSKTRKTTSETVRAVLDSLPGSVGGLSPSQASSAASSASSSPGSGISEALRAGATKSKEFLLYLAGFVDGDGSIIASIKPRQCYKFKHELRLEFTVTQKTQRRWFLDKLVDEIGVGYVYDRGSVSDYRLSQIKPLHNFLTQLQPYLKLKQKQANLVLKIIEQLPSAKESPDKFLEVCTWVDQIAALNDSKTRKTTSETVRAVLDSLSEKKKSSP
Method: as §1

[3] = target: T3, LIG3-4(B36) (artificial); assay: cell_activity; yeast 30 C; 22 C: 0
T3 chain: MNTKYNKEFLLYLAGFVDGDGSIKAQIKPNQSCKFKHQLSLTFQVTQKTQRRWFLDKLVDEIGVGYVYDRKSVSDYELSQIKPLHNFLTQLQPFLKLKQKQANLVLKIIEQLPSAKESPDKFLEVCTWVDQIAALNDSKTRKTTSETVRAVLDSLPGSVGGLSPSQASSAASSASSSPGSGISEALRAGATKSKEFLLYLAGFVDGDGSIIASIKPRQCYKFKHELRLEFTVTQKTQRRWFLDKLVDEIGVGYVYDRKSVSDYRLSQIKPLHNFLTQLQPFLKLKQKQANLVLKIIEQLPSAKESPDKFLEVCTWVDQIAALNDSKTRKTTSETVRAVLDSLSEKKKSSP
Method: as §1

[4] = target: T4, LIG3-4(B38) (artificial); assay: cell_activity; yeast 30 C; 22 C: 0
T4 chain: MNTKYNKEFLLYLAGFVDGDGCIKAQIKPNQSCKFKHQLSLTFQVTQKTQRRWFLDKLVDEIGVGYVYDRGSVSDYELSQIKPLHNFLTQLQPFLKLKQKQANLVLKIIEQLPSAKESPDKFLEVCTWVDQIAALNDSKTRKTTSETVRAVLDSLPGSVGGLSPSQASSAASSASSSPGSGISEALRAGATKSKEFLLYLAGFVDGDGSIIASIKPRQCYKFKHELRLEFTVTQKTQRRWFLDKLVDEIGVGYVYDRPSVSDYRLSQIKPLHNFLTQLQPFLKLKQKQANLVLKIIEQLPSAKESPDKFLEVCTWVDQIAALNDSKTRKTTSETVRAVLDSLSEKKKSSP
Method: as §1

[5] = target: T5, LIG3-4(B73) (artificial); assay: cell_activity; yeast 30 C; 22 C: 4
T5 chain: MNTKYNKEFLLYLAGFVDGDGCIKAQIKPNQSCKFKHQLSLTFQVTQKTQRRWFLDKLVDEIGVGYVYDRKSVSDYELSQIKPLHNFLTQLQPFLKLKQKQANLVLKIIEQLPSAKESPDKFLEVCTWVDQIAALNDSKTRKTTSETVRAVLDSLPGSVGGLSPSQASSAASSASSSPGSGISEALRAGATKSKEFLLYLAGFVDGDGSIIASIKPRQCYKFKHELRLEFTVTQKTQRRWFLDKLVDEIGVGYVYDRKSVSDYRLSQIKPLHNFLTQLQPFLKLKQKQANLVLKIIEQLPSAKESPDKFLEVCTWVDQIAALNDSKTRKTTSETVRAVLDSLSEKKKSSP
Method: as §1

B1: LIG3-4 recognition site (dsDNA)
DNA 1: ATATACCTCACACGTACGCGTA
DNA 2: TACGCGTACGTGTGAGGTATAT
- activity [1]: 4 score 0-4
- activity [2]: 3 score 0-4
- activity [3]: 4 score 0-4
- activity [4]: 4 score 0-4
- activity [5]: 4 score 0-4
